Assay results published in patent publication US20230210897A1.

Columns and labels:
Assay in all cases: cell-based or functional assay
[1] = molecular target: NKA receptor (truncated TGFβ dominant negative receptor fused to DAP12) (human)
[2] = molecular target: NKCT receptor (truncated TGFβ dominant negative receptor fused to a SynNotch receptor coupled to RELA/p65) (human) (UniProt P37173)
[3] = molecular target: wild-type TGFβRII on untransduced (UT) cord blood-derived NK cells (human) (UniProt P37173)
[4] = molecular target: RBDNR receptor (truncated TGFβ dominant negative receptor) (human) (UniProt P37173)

Chain of NKA receptor (truncated TGFβ dominant negative receptor fused to DAP12) (human) (chain, as listed by the source limits assumed, form in doubt): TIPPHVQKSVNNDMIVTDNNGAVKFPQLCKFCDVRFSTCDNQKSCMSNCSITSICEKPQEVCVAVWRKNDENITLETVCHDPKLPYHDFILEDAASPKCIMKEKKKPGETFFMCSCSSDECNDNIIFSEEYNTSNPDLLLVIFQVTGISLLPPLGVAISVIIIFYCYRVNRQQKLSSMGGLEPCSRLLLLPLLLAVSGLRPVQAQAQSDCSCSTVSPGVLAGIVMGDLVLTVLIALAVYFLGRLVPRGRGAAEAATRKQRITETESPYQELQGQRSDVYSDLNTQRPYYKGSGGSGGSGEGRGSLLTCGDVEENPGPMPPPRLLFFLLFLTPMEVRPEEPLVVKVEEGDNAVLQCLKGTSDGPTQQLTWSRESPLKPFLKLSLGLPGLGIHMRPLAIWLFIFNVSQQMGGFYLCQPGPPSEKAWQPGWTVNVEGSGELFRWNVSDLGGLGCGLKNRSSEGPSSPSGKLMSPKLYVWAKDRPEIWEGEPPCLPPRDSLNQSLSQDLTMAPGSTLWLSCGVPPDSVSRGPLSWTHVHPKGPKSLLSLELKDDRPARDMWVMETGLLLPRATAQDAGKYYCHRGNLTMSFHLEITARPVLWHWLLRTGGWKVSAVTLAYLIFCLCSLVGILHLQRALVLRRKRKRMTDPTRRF

- protection from TGFβ-impaired cytolytic activity in vitro (TGFβ concentration at which protection is lost) [1]: > 50 ng/mL
- protection from TGFβ-impaired cytolytic activity in vitro (TGFβ concentration at which protection is lost) [2]: > 50 ng/mL
- phosphorylated Smad2/3 (Ser465/467) by flow cytometry in untransduced NK cells, 1 hour after 10 ng/mL TGFβ [3]: 73.9%
- protection from TGFβ-impaired cytolytic activity in vitro (TGFβ concentration at which protection is lost) [4]: > 50 ng/mL
Substance: TGFβ (ligand)
